The text below walks through data of US20220177604A1 (ARGENX, published 2022).

A word on the IC50: it is the point on the concentration scale where inhibition reaches its midpoint.

For test [1], the target named is T1, human immunoglobulin E (hIgE) (human, UniProt P01854-1 1-428).
T1 construct: also called human IgE; Native IgE (Abcam)
In words: SPR competition, hIgE + mAb over hFcεRIα chip, pH 6 (text: pH 5.5).
Method: (§1) For this purpose, a competition approach was set-up. […] The assay was performed in HBS-EP pH7.4 or HBS-EP pH 5.5. Raw data were analyzed via BIA evaluation software with a blank subtraction (2-1). […] The IC50 values of each compound were calculated with a non-linear regression (log(agonist) vs. response Variable slope (four parameters)).

For test [2], the target named is T1, human immunoglobulin E (hIgE). Description: competition ELISA.
Method: (§2) The IC50 values of each compound were calculated with a non-linear regression (log(agonist) vs. response Variable slope (four parameters)).
For test [3] the target is unchanged. In words: SPR competition.
Method: as §1
Test [4] has the same target. Description: competition ELISA, biotin-hIgE to coated hFcεRIα, pH 6. For orientation: ELISA stands for enzyme-linked immunosorbent assay.
Method: as §2
Test [5] has the same target. In words: competition ELISA, biotin-hIgE to coated hFcεRIα, pH 7.4.
Method: as §2
The target is the same in test [6]. Description: SPR competition, hIgE + mAb over hFcεRIα chip, pH 7.4.
Method: as §1
Test [7] has the same target. Description: competition ELISA, hIgE to coated hFcεRIα, pH 7.4.
Method: (§3) The IC50 values of each antibody were calculated with a non-linear regression (log(agonist) vs. response Variable slope (four parameters)).
For test [8] the target is unchanged. Description: competition ELISA, hIgE to coated hFcεRIα, pH 6.
Method: as §3
Test [9] has the same target. In words: SPR competition, hIgE over hFcεRIα chip, pH 7.4.
Method: (§4) The assay was performed in HBS-EP pH7.4 or HBS-EP pH 5.5. Raw data were analyzed via BIA evaluation software with a blank subtraction (2-1). […] The IC50 values of each compound were calculated with a non-linear regression (log(agonist) vs. response Variable slope (four parameters)).
(§5) Raw data were analyzed via BIA evaluation software with a blank subtraction (2-1). […] The IC50 values of each compound, calculated with a non-linear regression (log(agonist) vs. response Variable slope (four parameters)).
Test [10] has the same target. Description: SPR competition, hIgE over hFcεRIα chip, pH 5.5.
Method: as §4, §5

T1 sequence (P01854 whole entry): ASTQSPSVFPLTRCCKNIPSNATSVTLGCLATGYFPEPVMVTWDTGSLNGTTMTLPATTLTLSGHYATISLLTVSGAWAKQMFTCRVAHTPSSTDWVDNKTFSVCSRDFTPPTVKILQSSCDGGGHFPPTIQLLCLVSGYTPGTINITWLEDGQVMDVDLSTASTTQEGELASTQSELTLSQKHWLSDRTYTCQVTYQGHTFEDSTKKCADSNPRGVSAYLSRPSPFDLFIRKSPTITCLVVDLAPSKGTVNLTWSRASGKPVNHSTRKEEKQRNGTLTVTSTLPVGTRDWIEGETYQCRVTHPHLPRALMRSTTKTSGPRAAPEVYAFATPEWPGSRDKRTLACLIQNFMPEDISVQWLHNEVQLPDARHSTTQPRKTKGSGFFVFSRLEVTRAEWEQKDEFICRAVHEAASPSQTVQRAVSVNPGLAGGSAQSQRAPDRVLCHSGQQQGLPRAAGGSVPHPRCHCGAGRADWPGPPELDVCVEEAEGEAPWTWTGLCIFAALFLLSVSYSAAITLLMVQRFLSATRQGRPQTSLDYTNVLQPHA

B1: 3A1 human IgG1 mAb (antibody, V domains shown)
VH: EVQVQESGGGLVQPGGSLRLSCAASGFTFDNYAMSWVRQAPGKGLEWVSAISWNGGSTYYAESMKGRFTISRDNAKNMLYLQMNSLKSEDTAVYYCAKDLLVAARGGMDYWGKGTLVTVSS
VL: SSALTQPSAVSVSLEQTARITCQGGTLGSYGAHWYQQKPGQAPVLLIYGDNSRPSGIPERFSGTRSGGTATLTISGAQAEDEADYYCQSFDYSGNAVFGGGTHLTVL
notes: human IgG1 and human light chain constant domains; also called clone 3A1
With B1, the IC50 in [1] amounted to 6.91 nM; in test [4], 148 nM; in test [5], 152 nM; in test [6], 4.76 nM. The “Ratio pH 6/7.4 (IC50)” value in [2] stood at 1; in test [3], 1.5.

B2: 18E2_VL Y34H_MG (antibody, V domains shown)
VH: QLLESGGGLVQPGGSLRLSCAASGFTFSSYVMSWVRQAPGKGLEWVSSIYHDGSHTYYADFVKGRFTISRDNSKNTLYLQMNSLRAEDTAVYYCAKGTSYSGSYYYTDPFFGSWGQGTLVTVSS
VL: SSELTQDPAVSVALGQTVRITCQGDRLGSRYIHWYQQKPGQAPVLVIYDDDRRPSGIPDRFSGSSSGNTASLTITGAQAEDEADYYCQSADSSGNPVFGGGTQLTVL
notes: germlined clone
In the case of B2, the concentration for half-maximal inhibition (IC50) in test [7] stood at 0.706 µg/mL; in test [8], 61.4 µg/mL.

B3: 18E2 human IgG1 mAb (antibody, V domains shown)
VH: QLQLVESGGGLVQPGGSLRLSCAASGFTFSSYVMSWVRQAPGKGLEWVSSIYHDGSHTYYADFVKGRFTISRDNAKNTLYLQMNSLKSEDTAVYYCASGTSYSGSYYYTDPFFGSWGQGTQVTVSS
VL: NFMLTQPSALSVTLGQTARITCQGDRLGSRYIYWYQQKPPQAPVLVIHDDDRRPSGIPERFSGSSSGGTATLTISGAQAEDDGDYYCQSADSSGNPVFGGGTHLTVL
notes: also called clone 18E2
On to B3, for which the IC50 in test [9] came out at 0.628 µg/mL; in test [4], 87.8 nM; in test [5], 36.9 nM; in [10] it was 0.484 µg/mL. Further, in test [2], the “Ratio pH 6/7.4 (IC50)” value came out at 2.4.

B4: VL18E2_Y34H (antibody, V domains shown)
VH: QLQLVESGGGLVQPGGSLRLSCAASGFTFSSYVMSWVRQAPGKGLEWVSSIYHDGSHTYYADFVKGRFTISRDNAKNTLYLQMNSLKSEDTAVYYCASGTSYSGSYYYTDPFFGSWGQGTQVTVSS
VL: NFMLTQPSALSVTLGQTARITCQGDRLGSRYIHWYQQKPPQAPVLVIHDDDRRPSGIPERFSGSSSGGTATLTISGAQAEDDGDYYCQSADSSGNPVFGGGTHLTVL
In the case of B4, the IC50 worked out at 1.1 µg/mL in test [9] and 5.18 µg/mL in test [10].

B5: 13E4_MG (antibody, V domains shown)
VH: EVQLLESGGGLVQPGGSLRLSCAASGFTFSSYVMSWVRQAPGKGLEWVSSIYHDGSHTYYADFVKGRFTISRDNSKNTLYLQMNSLRAEDTAVYYCAKGTSYSGSYYYTDPFFGSWGQGTLVTVSS
VL: SSELTQDPAVSVALGQTVRITCQGGSLGSNYAYWYQQKPGQAPVLVIYDDDSRPSGIPDRFSGSSSGNTASLTITGAQAEDEADYYCQSADSNGNAVFGGGTQLTVL
notes: germlined clone; also called germlined 13E4
In the case of B5, the IC50 came to 0.0242 µg/mL in [7] and 0.0633 µg/mL in [8].

B6: 18E2_H S35H_MG (antibody, V domains shown)
VH: EVQLLESGGGLVQPGGSLRLSCAASGFTFSSYVMHWVRQAPGKGLEWVSSIYHDGSHTYYADFVKGRFTISRDNSKNTLYLQMNSLRAEDTAVYYCAKGTSYSGSYYYTDPFFGSWGQGTLVTVSS
VL: SSELTQDPAVSVALGQTVRITCQGDRLGSRYIYWYQQKPGQAPVLVIYDDDRRPSGIPDRFSGSSSGNTASLTITGAQAEDEADYYCQSADSSGNPVFGGGTQLTVL
notes: germlined clone
As to B6, the 50% inhibitory concentration (IC50) in [7] stood at 0.0657 µg/mL; in test [8] it was 0.671 µg/mL.

B7: VH18E2_S35H (antibody, V domains shown)
VH: QLQLVESGGGLVQPGGSLRLSCAASGFTFSSYVMHWVRQAPGKGLEWVSSIYHDGSHTYYADFVKGRFTISRDNAKNTLYLQMNSLKSEDTAVYYCASGTSYSGSYYYTDPFFGSWGQGTQVTVSS
VL: NFMLTQPSALSVTLGQTARITCQGDRLGSRYIYWYQQKPPQAPVLVIHDDDRRPSGIPERFSGSSSGGTATLTISGAQAEDDGDYYCQSADSSGNPVFGGGTHLTVL
As to B7, the IC50 in test [9] stood at 0.811 µg/mL; in [10] it was 3.73 µg/mL.

B8: 18E2His2_MG (antibody, V domains shown)
VH: EVQLLESGGGLVQPGGSLRLSCAASGFTFSSYVMHWVRQAPGKGLEWVSSIYHDGSHTYYADFVKGRFTISRDNSKNTLYLQMNSLRAEDTAVYYCAKGTSYSGSYYYTDPFFGSWGQGTLVTVSS
VL: SSELTQDPAVSVALGQTVRITCQGDRLGSRYIHWYQQKPGQAPVLVIYDDDRRPSGIPDRFSGSSSGNTASLTITGAQAEDEADYYCQSADSSGNPVFGGGTQLTVL
notes: also called 18E2VHS35HVLY34HMG
On to B8, for which the IC50 in [7] is 3.91 µg/mL; in test [8] it was around 11300 µg/mL.

B9: 18B9 human IgG1 mAb (antibody, V domains shown)
VH: QVQLVESGGGLVQPGGSLRLSCAASGFTFSSYVMSWVRQAPGKGLEWVSSIYSDGSHTYYADSVKGRFTISRDNAKNTLYLQMNSLKSEDTAVYYCAKNLEHYSGSYYYTDPRYDYWGQGTQVTVSS
VL: SSALTQPSALSVTLGQTAKITCQGGSLGSSYVHWYQQKPGQAPVLVIYDGDSRPSGIPERFSGSSSGGTATLTISGAQAEDEDDYYCQSADSSGNAVFGGGTHLTVL
notes: human IgG1 and human light chain constant domains; also called clone 18B9
As for B9, the IC50 in test [1] was determined as 5.65 nM; in test [9] it was 0.662 µg/mL; in test [4] it was 112 nM; in [5], 41.9 nM; in [10] it was 1.07 µg/mL; in [6] it was 4.09 nM. For the same molecule, the “Ratio pH 6/7.4 (IC50)” value came to 2.7 in test [2] and 1.4 in test [3].

B10: 3D6 human IgG1 mAb (antibody, V domains shown)
VH: QVQLVESGGGLVQPGGSLRLSCAASGFTFSSYYMTWVRQAPGKGLEWVSSIYSDGSNTYYADSVKGRFTISRDNAKNTLHLQMNSLKSEDTAVYYCAKDLKARYSGSYHDEGYDYWGQGTQVTVSS
VL: QSALTQPSALSVTLGQTAKITCQGGSLGSSYAHWYQQKPGQAPVLVIYDDDSRPSGIPERFSGSSSGGRATLTISGAQAEDEGDYYCQSADSSGNPVFGGGTKLTVL
notes: human IgG1 and human light chain constant domains; also called clone 3D6
As for B10, the IC50 in test [1] worked out at 8.04 nM; in test [4], 214 nM; in test [5], 75.4 nM; in test [6], 4.37 nM. Besides, the “Ratio pH 6/7.4 (IC50)” value in test [2] was determined as 2.8; in test [3], 1.8.

B11: 18B9His_MG (antibody, V domains shown)
VH: EVQLLESGGGLVQPGGSLRLSCAASGFTFSSYVMSWVRQAPGKGLEWVSSIYSDGSHTYYADSVKGRFTISRDNSKNTLYLQMNSLRAEDTAVYYCAKNLEHYSGSYYYTDPRYDYWGQGTLVTVSS
VL: SSELTQDPAVSVALGQTVRITCQGGSLGSSYVHWYQQKPGQAPVLVIYDGDSRPSGIPDRFSGSSSGNTASLTITGAQAEDEADYYCQSADSSGNAVFGGGTQLTVL
For the molecule B11, the IC50 is 0.176 µg/mL in [7] and 1.74 µg/mL in test [8].

B12: VH18B9_S35H (antibody, V domains shown)
VH: QVQLVESGGGLVQPGGSLRLSCAASGFTFSSYVMHWVRQAPGKGLEWVSSIYSDGSHTYYADSVKGRFTISRDNAKNTLYLQMNSLKSEDTAVYYCAKNLEHYSGSYYYTDPRYDYWGQGTQVTVSS
VL: SSALTQPSALSVTLGQTAKITCQGGSLGSSYVHWYQQKPGQAPVLVIYDGDSRPSGIPERFSGSSSGGTATLTISGAQAEDEDDYYCQSADSSGNAVFGGGTHLTVL
As for B12, the figures for the concentration for half-maximal inhibition (IC50) in test [9] and in [10] were 21.7 µg/mL and 22.3 µg/mL, respectively.

B13: 16E4 human IgG1 mAb (antibody, V domains shown)
VH: EVQLVESGGGLVQPGGSLRLSCAASGFTFSSYYMSWVRQAPGKGLEWVSSIYSDGSYAYYADSVKGRFTISRDNAKNTLYLQMNSLKSEDTAVYYCAKDLKARYSGTYHDEGYDYWGQGTQVTVSS
VL: SSALTQPSALSVTLGQSAKITCQGGSLGATYAYWYQQKPGQAPVLVIYDDDSRPSGIPERFSGSSSGGRATLTISGAQAEDEGDYYCQSAYSNGNAVFGGGTHLTVL
notes: also called clone 16E4
In the case of B13, the half-maximal inhibitory concentration (IC50) in test [1] was 5.17 nM; in [4], 156 nM; in test [5], 58 nM; in [6], 4.25 nM. Moreover, the “Ratio pH 6/7.4 (IC50)” value in [2] amounted to 2.7; in test [3], 1.2.

B14: 20D5 human IgG1 mAb (antibody, V domains shown)
VH: QLQLVESGGGLVQPGGSLRLSCAASGFAFSSYVMTWVRQAPGKGLEWVSSIYSDGSHTYYADSVKDRFTISRDNAKNTLFLQMNSLKSEDTAVYYCAKDAEYYSGSYYYTDTKYDYWGQGTQVTVSS
VL: SSALTQPSALSVTLGQTAKITCQGGSLGSSYAHWYQQKPGQAPVLVIYADDSRPSGIPERFSGSSSGGTATLTISGAQAEDEGDYYCQSADSSGNAVFGGGTHLTVL
notes: also called clone 20D5
Take B14: the concentration for half-maximal inhibition (IC50) in [1] was found to be 3.83 nM; in test [4] it was 39.1 nM; in [5], 35.2 nM; in test [6], 3.38 nM. In addition, the “Ratio pH 6/7.4 (IC50)” value in test [2] and in test [3] was 1.1 in each case.
